# Data reported in article PMC11983205.
# Target: CD33 (UniProt P20138 18-259)
# Assay: LOCK displacement, CHA/Cas12a fluorescence
# Sequence of CD33 (P20138 18-259): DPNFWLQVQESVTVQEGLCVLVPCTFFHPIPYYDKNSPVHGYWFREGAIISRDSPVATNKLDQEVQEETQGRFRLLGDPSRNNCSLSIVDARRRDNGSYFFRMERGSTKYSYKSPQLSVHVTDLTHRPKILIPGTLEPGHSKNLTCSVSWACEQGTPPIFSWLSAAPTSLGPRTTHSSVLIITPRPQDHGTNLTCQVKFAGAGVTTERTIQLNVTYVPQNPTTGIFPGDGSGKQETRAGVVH
binder,measurement,value
CD33 YES gate DNA1/LOCK (mixed) DNA 1: TAGCTTATCAGACTGATGTTGATACCAGTGCGATGCTCAGCACGCTTATAGGGGCTGGACAAAATTCTACCCAGCCTTTTCTGACGCATTCGGTTGAC DNA 2: CACTGGTATCAACATCAGTC,binding result,binds
